Laboratory results reported in PMC6872632, “BIK1 and ERECTA Play Opposing Roles in Both Leaf and Inflorescence Development in Arabidopsis” (Frontiers in Plant Science, 2019).

B1: ER-LIKE1 (ERL1) cytoplasmic domain, GST-tagged recombinant protein (domain or fragment, Arabidopsis thaliana, UniProt C0LGW6 604-966, looked up)
chain: YKSMQQKKILQGSSKQAEGLTKLVILHMDMAIHTFDDIMRVTENLNEKFIIGYGASSTVYKCALKSSRPIAIKRLYNQYPHNLREFETELETIGSIRHRNIVSLHGYALSPTGNLLFYDYMENGSLWDLLHGSLKKVKLDWETRLKIAVGAAQGLAYLHHDCTPRIIHRDIKSSNILLDENFEAHLSDFGIAKSIPASKTHASTYVLGTIGYIDPEYARTSRINEKSDIYSFGIVLLELLTGKKAVDNEANLHQLILSKADDNTVMEAVDPEVTVTCMDLGHIRKTFQLALLCTKRNPLERPTMLEVSRVLLSLVPSLQVAKKLPSLDHSTKKLQQENEVRNPDAEASQWFVQFREVISKSSI
notes: ER-LIKE1 (ERL1), Arabidopsis thaliana, truncated to the cytoplasmic domain (CD), in pGEX-4T-1; also called GST-ERL1-CD; source: E. coli BL21, purified (Glutathione Sepharose beads)
B2: ERL2 cytoplasmic domain, GST-tagged recombinant protein (domain or fragment, Arabidopsis thaliana, UniProt Q6XAT2 607-967, looked up)
chain: YKSKQQKPVLKGSSKQPEGSTKLVILHMDMAIHTFDDIMRVTENLDEKYIIGYGASSTVYKCTSKTSRPIAIKRIYNQYPSNFREFETELETIGSIRHRNIVSLHGYALSPFGNLLFYDYMENGSLWDLLHGPGKKVKLDWETRLKIAVGAAQGLAYLHHDCTPRIIHRDIKSSNILLDGNFEARLSDFGIAKSIPATKTYASTYVLGTIGYIDPEYARTSRLNEKSDIYSFGIVLLELLTGKKAVDNEANLHQMILSKADDNTVMEAVDAEVSVTCMDSGHIKKTFQLALLCTKRNPLERPTMQEVSRVLLSLVPSPPPKKLPSPAKVQEGEERRESHSSDTTTPQWFVQFREDISKSSL
notes: ERL2 (ER-LIKE2), Arabidopsis thaliana, truncated to the cytoplasmic domain (CD), in pGEX-4T-1; also called GST-ERL2-CD; source: E. coli BL21, purified (Glutathione Sepharose beads)
B3: ERECTA (ER) cytoplasmic domain, GST-tagged recombinant protein (domain or fragment, Arabidopsis thaliana, UniProt Q42371 602-976, looked up)
chain: CRPHNPPPFLDGSLDKPVTYSTPKLVILHMNMALHVYEDIMRMTENLSEKYIIGHGASSTVYKCVLKNCKPVAIKRLYSHNPQSMKQFETELEMLSSIKHRNLVSLQAYSLSHLGSLLFYDYLENGSLWDLLHGPTKKKTLDWDTRLKIAYGAAQGLAYLHHDCSPRIIHRDVKSSNILLDKDLEARLTDFGIAKSLCVSKSHTSTYVMGTIGYIDPEYARTSRLTEKSDVYSYGIVLLELLTRRKAVDDESNLHHLIMSKTGNNEVMEMADPDITSTCKDLGVVKKVFQLALLCTKRQPNDRPTMHQVTRVLGSFMLSEQPPAATDTSATLAGSCYVDEYANLKTPHSVNCSSMSASDAQLFLRFGQVISQNSE
notes: ERECTA (ER), Arabidopsis thaliana, truncated to the cytoplasmic domain (CD), in pGEX-4T-1; also called GST-ER-CD; ER-CD; source: E. coli BL21, purified (Glutathione Sepharose beads)

Target: T1, BOTRYTIS-INDUCED KINASE1 (BIK1), His-tagged recombinant protein (Arabidopsis thaliana, UniProt O48814 1-395)
T1 construct: BOTRYTIS-INDUCED KINASE1 (BIK1), Arabidopsis thaliana, full-length ORF cloned into pET-28; source: E. coli BL21, purified (Ni-Sepharose beads)
T1 sequence (looked up): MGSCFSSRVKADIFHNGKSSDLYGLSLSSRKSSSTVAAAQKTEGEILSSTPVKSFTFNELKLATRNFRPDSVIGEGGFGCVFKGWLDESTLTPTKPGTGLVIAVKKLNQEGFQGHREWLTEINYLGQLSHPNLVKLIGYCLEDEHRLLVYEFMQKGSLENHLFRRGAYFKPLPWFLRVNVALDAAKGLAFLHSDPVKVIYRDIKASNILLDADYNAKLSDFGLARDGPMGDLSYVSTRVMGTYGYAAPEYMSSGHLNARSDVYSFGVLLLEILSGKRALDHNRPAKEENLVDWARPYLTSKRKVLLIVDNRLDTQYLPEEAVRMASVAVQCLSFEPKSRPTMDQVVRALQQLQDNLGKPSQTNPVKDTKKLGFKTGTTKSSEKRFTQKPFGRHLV
Assay: pull-down; 10 µg BIK1-His and 10 µg GST-ER/ERL1/ERL2-CD or GST with glutathione agarose beads, 25 mM Tris-HCl pH 7.5, 150 mM NaCl, 1 mM DTT, 3 h; eluted with 30 mM glutathione; BIK1-His detected with anti-His antibody
Settings: both partners purified

Binding result, binds:
B1
B2
B3
